Patent US20130071379A1
Substitutions are numbered along the chain they refer to.

B1: 1B20 variant G2 (antibody, part only; not given: light chain, probably the common parent VL, V domains shown, part only)
VH: QVKLVQSGAEVKKPGESLKISCKGSGYSFTDYYISWVRQMPGKGLEWMGIIYPGDSYTHYNPKFQGQVTISADKSISTAYLQWSSLKASDTAMYYCARDRWSKPLFDVWGQGTLVTVSS
B2: 1B20 variant H3 (antibody, part only; not given: light chain, probably the common parent VL, V domains shown, part only)
VH: B1 VH with K3Q, D31N, S35T, I50M, N61S, P62Q, K63R, M93I, R100H, K103R
B3: 1B20 variant A4 (antibody, part only; not given: light chain, probably the common parent VL, V domains shown, part only)
VH: B1 VH with K3Q, I50S, N61S, P62H, M93I, R100H, K103R, L105F
B4: 1B20 variant A6 (antibody, part only; not given: light chain, V domains shown, part only)
VH: QVQLVQSGAEVKKPGESLKISCKGSGYSFTNYYISWVRQMPGKGLEWMGLIYPGDSYTRYNPSFQGQVTISADKSISTAYLQWSSLKASDTAMYYCARDYYSRPFSDIWGQGTLVTVSS
B5: 1B20 variant F6 (antibody, part only; not given: light chain, probably the common parent VL, V domains shown, part only)
VH: B4 VH with R59H, Y100H, Y101W, S102Y, R103K
B6: 1B20 variant B9 (antibody, part only; not given: light chain, V domains shown, part only)
VH: B4 VH with L50I, T58I, R59H, P62Q, S63N
B7: 1B20 variant F5 (antibody, part only; not given: light chain, probably the common parent VL, V domains shown, part only)
VH: B4 VH with N31D, S35T, L50M, R59N, N61R, P62H, S63N, Y101W, F105Y, S106F
B8: 1B20 variant D4 (antibody, part only; not given: light chain, probably the common parent VL, V domains shown, part only)
VH: B4 VH with N31D, S35A, L50I, S63K, Y101W, I108V
B9: 1B20 variant D5 (antibody, part only; not given: light chain, probably the common parent VL, V domains shown, part only)
VH: B4 VH with S35T, N61S, S63R, Y100H, Y101W, F105Y, I108V
B10: 1B20 variant B5 (antibody, part only; not given: light chain, probably the common parent VL, V domains shown, part only)
VH: B4 VH with N31D, L50M, N61S, W83S, Y101W, S102Y, R103K, I108V
B11: 1B20 variant A1 (antibody, part only; not given: light chain, probably the common parent VL, V domains shown, part only)
VH: B4 VH with N31D, Y101W, R103K, F105L
B12: 1B20 variant E5 (antibody, part only; not given: light chain, probably the common parent VL, V domains shown, part only)
VH: B1 VH with K3Q, I50W, K63N, K103T, L105Y
B13: 1B20 variant G4 (antibody, part only; not given: light chain, probably the common parent VL, V domains shown, part only)
VH: B4 VH with N61S, S63R, Y100H, Y101G, S102Y, R103K, F105Y
B14: 1B20 variant C1 (antibody, part only; not given: light chain, probably the common parent VL, V domains shown, part only)
VH: B4 VH with L50M, N61S, S63K, Y100H, Y101W, S102Y, F105Y
B15: 1B20 variant F4 (antibody, part only; not given: light chain, probably the common parent VL, V domains shown, part only)
VH: B4 VH with N31D, N61S, R103K, F105L, S106F, I108V
B16: 1B20 variant F1 (antibody, part only; not given: light chain, probably the common parent VL, V domains shown, part only)
VH: B1 VH with K3Q, I50L, H59N, N61S, R100H, F106S
B17: 1B20 variant A5 (antibody, part only; not given: light chain, probably the common parent VL, V domains shown, part only)
VH: B1 VH with K3Q, I50W, K63M, K103R, L105Y, V108I
B18: 1B20 variant H8 (antibody, part only; not given: light chain, probably the common parent VL, V domains shown, part only)
VH: B1 VH with K3Q, I50M, N61S, P62Q, K63N, R100H, K103R, L105F
B19: 1B20 variant A8 (antibody, part only; not given: light chain, probably the common parent VL, V domains shown, part only)
VH: B1 VH with K3Q, D31N, I50M, N61S, K63N, R100Y, L105Y
B20: 1B20 variant A3 (antibody, part only; not given: light chain, V domains shown, part only)
VH: B4 VH with N31D, L50M, N61S, S63N, Y100H, Y101W, S102Y, F105L
B21: 1B20 variant A7 (antibody, part only; not given: light chain, V domains shown, part only)
VH: B1 VH with K3Q, D31N, H59R, K63N, R100Y, F106S
B22: 1B20 variant H4 (antibody, part only; not given: light chain, probably the common parent VL, V domains shown, part only)
VH: B1 VH with K3Q, D31N, S35T, K43R, H59R, R100H, L105F, F106S
B23: 1B20 variant E8 (antibody, part only; not given: light chain, probably the common parent VL, V domains shown, part only)
VH: B1 VH with K3Q, D31N, S35T, I50M, H59R, N61S, R100H, F106S
B24: 1B20 variant E1 (antibody, part only; not given: light chain, probably the common parent VL, V domains shown, part only)
VH: B4 VH with L50M, R59S, S63N, Y100H, Y101W, R103K, S106F
B25: 1B20 variant D8 (antibody, part only; not given: light chain, V domains shown, part only)
VH: B1 VH with K3Q, I50M, N61S, P62Q, K63S, R100H, S102Y, K103R, V108I
B26: 1B20 variant H5 (antibody, part only; not given: light chain, probably the common parent VL, V domains shown, part only)
VH: B1 VH with K3Q, H59S, N61S, K63R, R100Y, K103R
B27: 1B20 variant C2 (antibody, part only; not given: light chain, probably the common parent VL, V domains shown, part only)
VH: B4 VH with N31D, S35A, R59S, S63R, Y101W, R103T, F105Y, S106F
B28: 1B20 variant H1 (antibody, part only; not given: light chain, probably the common parent VL, V domains shown, part only)
VH: B1 VH with K3Q, S35A, H59R, K63R, R100Y, F106S, V108I
B29: 1B20 variant B8 (antibody, part only; not given: light chain, V domains shown, part only)
VH: B1 VH with K3Q, D31N, I50M, N61S, K63N, R100Y, L105Y
B30: 1B20 variant G3 (antibody, part only; not given: light chain, probably the common parent VL, V domains shown, part only)
VH: B4 VH with S63K, F105Y, I108V
B31: 1B20 variant B6 (antibody, part only; not given: light chain, probably the common parent VL, V domains shown, part only)
VH: B4 VH with N31D, L50I, R59N, Y101W, S102Y
B32: 1B20 variant F8 (antibody, part only; not given: light chain, probably the common parent VL, V domains shown, part only)
VH: B4 VH with L50M, R59N, P62Q, S63K, Y101W, F105Y
B33: 1B20 variant G5 (antibody, part only; not given: light chain, V domains shown, part only)
VH: B4 VH with N31D, N61S, S63N, Y100H, Y101G, S102Y, F105Y
B34: 1B20 variant F2 (antibody, part only; not given: light chain, V domains shown, part only)
VH: B4 VH with S35A, L50V, S63K, Y101W, F105Y, S106F
B35: 1B20 variant D3 (antibody, part only; not given: light chain, V domains shown, part only)
VH: B1 VH with K3Q, S35T, I50M, H59R, N61S, R100Y, L105F
B36: 1B20 variant G7 (antibody, part only; not given: light chain, probably the common parent VL, V domains shown, part only)
VH: B1 VH with K3Q, I50W, N61S, K63S, R100H, L105Y
B37: 1B20 variant E4 (antibody, part only; not given: light chain, probably the common parent VL, V domains shown, part only)
VH: B1 VH with K3Q, D31N, I50W, H59S, P62Q, R100Y, L105Y, F106S
B38: 1B20 variant A9 (antibody, part only; not given: light chain, probably the common parent VL, V domains shown, part only)
VH: B4 VH with L50M, N61S, S63K, Y100H, Y101W, S102Y, F105Y
B39: 1B20 variant C6 (antibody, part only; not given: light chain, V domains shown, part only)
VH: B1 VH with K3Q, D31N, S35T, I50M, K63S, R100H, S102Y, V108I
B40: 1B20 variant G6 (antibody, part only; not given: light chain, probably the common parent VL, V domains shown, part only)
VH: B1 VH with K3Q, S35N, I50M, H59N, M93I, R100H, K103R, L105F, F106S
B41: 1B20 variant B1 (antibody, part only; not given: light chain, probably the common parent VL, V domains shown, part only)
VH: B1 VH with K3Q, N61S, K63N, R100Y, S102Y, K103T, L105F
B42: 1B20 variant B2 (antibody, part only; not given: light chain, probably the common parent VL, V domains shown, part only)
VH: B4 VH with R59N, S63N, Y100H, R103T, S106F, I108V
B43: 1B20 variant B4 (antibody, part only; not given: light chain, probably the common parent VL, V domains shown, part only)
VH: B1 VH with K3Q, I50L, K63N, R100Y
B44: 1B20 variant E2 (antibody, part only; not given: light chain, probably the common parent VL, V domains shown, part only)
VH: B4 VH with P62R, S63K, F105L, I108V
B45: 1B20 variant C3 (antibody, part only; not given: light chain, probably the common parent VL, V domains shown, part only)
VH: B1 VH with D31N, S35A, R100H, W101G, S102Y, L105F, F106S, V108I
B46: 1B20 variant C7 (antibody, part only; not given: light chain, probably the common parent VL, V domains shown, part only)
VH: B1 VH with K3Q, I50W, N61S, P62H, K63N, R100H, K103R, L105F, F106S
B47: 1B20 variant F7 (antibody, part only; not given: light chain, V domains shown, part only)
VH: B1 VH with K3Q, D31N, S35A, R100H, K103R, L105F, F106S
B48: 1B20 variant B3 (antibody, part only; not given: light chain, probably the common parent VL, V domains shown, part only)
VH: B1 VH with K3Q, D31N, I50M, H59S, R100H, L105Y, V108I
B49: 1B20 variant E3 (antibody, part only; not given: light chain, V domains shown, part only)
VH: B4 VH with N31D, L50M, R59S, N61S, S63R, Y101W, S102Y
B50: 1B20 variant H7 (antibody, part only; not given: light chain, probably the common parent VL, V domains shown, part only)
VH: B4 VH with N31D, L45P, L50M, N61S, P62Q, S63K, M93I, Y100H, Y101W, F105L
B51: 1B20 variant G8 (antibody, part only; not given: light chain, probably the common parent VL, V domains shown, part only)
VH: B1 VH with K3Q, I50L, K63N, R100H, L105Y
B52: 1B20 variant C8 (antibody, part only; not given: light chain, V domains shown, part only)
VH: QVQLVQSGAEVKKPGESLKISCKGSGYSFTNYYIAWVRQMPGKGLEWMGMIYPGDSYTSYSHRFQGQVTISADKSISTAYLQWSSLKASDTAMYYCARDHWYRPYFDIWGQGTLVTVSS

Target: PCSK9
Assay: Biacore SPR

Kd [nM]	Binder
2.11	B1
1.89	B2
2.15	B3
1.39	B4
2.68	B5
3.81	B6
2.41	B7
1.91	B8
1.6	B9
1.36	B10
2.15	B11
4.22	B12
2.9	B13
1.65	B14
3.14	B15
3.47	B16
6.81	B17
1.35	B18
1.19	B19
7.93	B20
1.28	B21
1.52	B22
1.62	B23
1.36	B24
3.21	B25
2.41	B26

Kd [nM]	Binder
2.25	B27
2.01	B28
4.47	B29
1.53	B30
2.88	B31
1.35	B32
1.65	B33
1.01	B34
2.68	B35
2.05	B36
2.38	B37
1.95	B38
2.1	B39
2.2	B40
3.73	B41
2.21	B42
2.01	B43
2.62	B44
4.5	B45
2.53	B46
1.26	B47
1.21	B48
2.62	B49
4.9	B50
1.51	B51
3.73	B52
